The chains are these.
B1: Ab1 Fab variant H1 I41V (Fab, V domains shown)
VH: QVQLQESGPGLVKPSQTLSLTCTVSGYAFTAYNVHWVRQAPGQGLEWMGSFDPYDGGSSYNQKFKDRLTISKDTSKNQVVLTMTNMDPVDTATYYCARGWYYFDYWGHGTLVTVSS
VL: DIVMTQTPLSLPVTPGEPASISCRASKSISKYLAWYQQKPGQAPRLLIYSGSTLQSGIPPRFSGSGYGTDFTLTINNIESEDAAYYFCQQHDESPYTFGEGTKVEIK
B2: Ab1 Fab variant H2 S57A (Fab, V domains shown)
VH: B1 VH with V34I, S50A
VL: B1 VL
B3: Ab1 Fab variant H1 N40R (Fab, V domains shown)
VH: B1 VH with N33R, V34I
VL: B1 VL
B4: Ab1 Fab variant L2 S68G (Fab, V domains shown)
VH: B1 VH with V34I
VL: B1 VL with S52G
notes: Fab; also called SGGTLQS
B5: Ab1 Fab variant L2 L70K (Fab, V domains shown)
VH: B1 VH with V34I
VL: B1 VL with L54K
notes: Fab; also called SGSTKQS
B6: Ab1 Fab variant L1 S30A (Fab, V domains shown)
VH: B1 VH with V34I
VL: B1 VL with S28A
notes: Fab
B7: Ab1 Fab variant L1 L41V (Fab, V domains shown)
VH: B1 VH with V34I
VL: B1 VL with L33V
notes: Fab
B8: Ab1 Fab variant L2 T69R (Fab, V domains shown)
VH: B1 VH with V34I
VL: B1 VL with T53R
notes: Fab; also called SGSRLQS
B9: Ab1 Fab variant L1 S30P (Fab, V domains shown)
VH: B1 VH with V34I
VL: B1 VL with S28P
notes: Fab
B10: Ab1 Fab variant L1 S32A (Fab, V domains shown)
VH: B1 VH with V34I
VL: B1 VL with S30A
notes: Fab
B11: Ab1 Fab variant L1 S32I (Fab, V domains shown)
VH: B1 VH with V34I
VL: B1 VL with S30I
notes: Fab
B12: Ab1 Fab variant L2 S68R (Fab, V domains shown)
VH: B1 VH with V34I
VL: B1 VL with S52R
notes: Fab; also called SGRTLQS
B13: Ab1 Fab variant L2 L70H (Fab, V domains shown)
VH: B1 VH with V34I
VL: B1 VL with L54H
notes: Fab; also called SGSTHQS
B14: Ab1 Fab variant L2 Q71T (Fab, V domains shown)
VH: B1 VH with V34I
VL: B1 VL with Q55T
notes: Fab; also called SGSTLTS
B15: Ab1 Fab variant L1 S30F (Fab, V domains shown)
VH: B1 VH with V34I
VL: B1 VL with S28F
notes: Fab
B16: Ab1 Fab variant L2 Q71V (Fab, V domains shown)
VH: B1 VH with V34I
VL: B1 VL with Q55V
notes: Fab; also called SGSTLVS
B17: Ab1 Fab variant L1 S30H (Fab, V domains shown)
VH: B1 VH with V34I
VL: B1 VL with S28H
notes: Fab
B18: Ab1 Fab variant L2 T69H (Fab, V domains shown)
VH: B1 VH with V34I
VL: B1 VL with T53H
notes: Fab; also called SGSHLQS
B19: Ab1 Fab variant H1 A30I (Fab, V domains shown)
VH: B1 VH with A28I, V34I
VL: B1 VL
notes: Fab
B20: Ab1 Fab variant H1 G27T (Fab, V domains shown)
VH: B1 VH with G26T, V34I
VL: B1 VL
notes: Fab
B21: Ab1 Fab variant H1 F31W (Fab, V domains shown)
VH: B1 VH with F29W, V34I
VL: B1 VL
notes: Fab
B22: Ab1 Fab variant H1 N40K (Fab, V domains shown)
VH: B1 VH with N33K, V34I
VL: B1 VL
notes: Fab
B23: Ab1 Fab variant H2 D65N (Fab, V domains shown)
VH: B1 VH with V34I, D55N
VL: B1 VL
notes: Fab
B24: Ab1 Fab variant H1 T32D (Fab, V domains shown)
VH: B1 VH with T30D, V34I
VL: B1 VL
notes: Fab
B25: Ab1 Fab variant H2 F58P (Fab, V domains shown)
VH: B1 VH with V34I, F51P
VL: B1 VL
notes: Fab
B26: Ab1 Fab variant H2 G67M (Fab, V domains shown)
VH: B1 VH with V34I, G57M
VL: B1 VL
notes: Fab
B27: Ab1 Fab variant H1 G27R (Fab, V domains shown)
VH: B1 VH with G26R, V34I
VL: B1 VL
notes: Fab
B28: Ab1 Fab variant H2 D65T (Fab, V domains shown)
VH: B1 VH with V34I, D55T
VL: B1 VL
notes: Fab
B29: Ab1 Fab variant H1 Y29K (Fab, V domains shown)
VH: B1 VH with Y27K, V34I
VL: B1 VL
notes: Fab
B30: Ab1 Fab variant H1 G27D (Fab, V domains shown)
VH: B1 VH with G26D, V34I
VL: B1 VL
notes: Fab
B31: Ab1 Fab variant H2 D59S (Fab, V domains shown)
VH: B1 VH with V34I, D52S
VL: B1 VL
notes: Fab
B32: Ab1 Fab variant H1 A30R (Fab, V domains shown)
VH: B1 VH with A28R, V34I
VL: B1 VL
notes: Fab
B33: Ab1 Fab variant H1 Y29S (Fab, V domains shown)
VH: B1 VH with Y27S, V34I
VL: B1 VL
notes: Fab
B34: Ab1 Fab variant H1 F31L (Fab, V domains shown)
VH: B1 VH with F29L, V34I
VL: B1 VL
notes: Fab
B35: Ab1 Fab variant H2 G67H (Fab, V domains shown)
VH: B1 VH with V34I, G57H
VL: B1 VL
notes: Fab

Substitutions are numbered along the chain they refer to. Names may count otherwise.

As a reminder, the Kd is a measure of binding affinity in units of concentration.

In one assay the target is T1, recombinant human ROR1 extracellular domain (human, UniProt Q01973 30-406).
T1 construct: biotinylated for the filter lifts; also called huROR1-ECD; human ROR1-ECD
T1 sequence (Q01973 30-406 limits assumed): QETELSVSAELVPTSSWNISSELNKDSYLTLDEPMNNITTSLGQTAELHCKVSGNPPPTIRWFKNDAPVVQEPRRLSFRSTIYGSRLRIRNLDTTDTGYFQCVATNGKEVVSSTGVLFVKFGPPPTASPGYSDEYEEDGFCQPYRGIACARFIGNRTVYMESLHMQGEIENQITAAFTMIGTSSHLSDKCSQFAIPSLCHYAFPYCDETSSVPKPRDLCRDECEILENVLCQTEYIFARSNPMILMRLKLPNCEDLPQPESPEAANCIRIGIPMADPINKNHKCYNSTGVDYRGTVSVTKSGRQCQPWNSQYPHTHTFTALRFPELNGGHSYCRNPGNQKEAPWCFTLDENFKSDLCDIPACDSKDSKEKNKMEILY
Kind of assay: ELISA, soluble Fab on coated huROR1-ECD. The procedure:
The previously described filter lift assay provides a visual, qualitative assessment of antigen binding (Example 1). In order to assess the ROR1 binding activity of Ab1 Fab in a more quantitative fashion, an ELISA assay was developed. A 96-well Costar-3366 plate was coated with 50 μL/well of 1 μg/mL human ROR1-ECD (ACROBiosystems, cat. #RO1-H522y) in PBS overnight at 4° C. The plate was rinsed once with PBS-T and blocked with 100 μL/well of 5% M-P for 1 h at 25° C. Fab samples were serially diluted 3-fold using 5% M-P and 50 μL/well was incubated for 1 h at 25° C. The plate was washed three times with PBS-T and 50 μL/well anti-human kappa, and HRP conjugate (Southern Biotech, cat. #2060-05) diluted 10,000-fold in 5% M-P was added for 1 h at 25° C. In certain assays (extended wash format), the plate was placed in large volumes (up to 1 L) of PBS-T and incubated, with mixing, for 2-5 h prior to the addition of anti-human kappa, HRP conjugate. The plate was washed three times with PBS-T, and developed with 50 μL/well 1-Step Ultra TMB-ELISA (Thermo Scientific, cat. #34028). The reaction was terminated by the addition of 2 N H2504 and the A450 was determined using a Spectramax plate reader.
In general terms: ELISA stands for enzyme-linked immunosorbent assay.
In the case of B1, the Kd was found to be 3.5 nM.
The same measure, in the same setting: the value for B2 was 3.6 nM; that for B3 was 43 nM.
On the same count and under the same terms, the value for B4 was 1.6 nM; that for B5 was 1.5 nM.
On the same count and under the same terms, with B6 the figure was 1.5 nM; with B7, 1.1 nM.
With B8, the Kd was found to be 2.1 nM.
The same measure, in the same setting: the value for B9 was 16 nM.
With B10, the Kd stood at 1.1 nM.
On the same count and under the same terms, with B11 the figure was 1.9 nM; with B12, 11 nM; with B13, 2.3 nM.
B14: the equilibrium dissociation constant (Kd) came to 1.1 nM.
On the same count and under the same terms, the value for B15 was 18 nM; that for B16 was 1.3 nM.
Consider B17, for which the Kd amounted to 1.4 nM.
On the same count and under the same terms, the value for B18 was 1.5 nM.

A further assay addresses T1, recombinant human ROR1 extracellular …. Kind of assay: capture filter lift. As for the experimental part:
Subsequently, the filter was applied to the agar plates as described above. For detection of antigen binding, the filter was rinsed briefly in PBS, and transferred to biotinylated huROR1-ECD (ACROBiosystems, cat. #RO1-H522y) in 5% M-P.
Filters were incubated with 2.3 nM biotinylated ROR1 diluted in 5% M-P for 2 h at 25° C. with constant agitation, and washed 5 times, 2 minutes each wash, with constant agitation in PBS-T. Alternatively, filters were washed more rapidly using a squirt bottle and sintered glass funnel for vacuum filtration. The filters were transferred to 10 mL of High Sensitivity Neutravidin, HRP conjugate (Thermo Scientific, cat. #31030) diluted 5000-fold in 1% BSA in PBS and incubated for 1 h at 25° C. The filters were then washed 5 times in PBS-T and were developed with 1-Step Ultra TMB-Blotting.
All libraries were initially screened by capture lift to identify variants with improved binding. The capture lift assay, described in Example 1, enables the filter lift assay to discern variants that bind antigen more strongly based on the staining intensity. In order to determine the optimal concentration of antigen to use for screening, biotinylated huROR1-ECD was titrated on a capture lift of Ab1 Fab. Binding to Ab1 was clearly visible at antigen concentrations ≥23 nM and the signal was diminished at lower huROR1 concentrations. […] In addition, for more stringent screening, filters were probed with lower concentrations of antigen and/or development of the filter was terminated earlier, before the Ab1 staining was visible. […] In this example, approximately 250 library variants were plated. Twelve variants clearly bound huROR1 (FIG. 4, numbered).
Regarding B19, the binding result is “binds”.
Consider B20, for which the binding result is on record as “binds”.
Same read-out and setting: the value for B21 was “binds”; that for B22 was “binds”.
Turning to B23, the binding result is “binds”.
Take B24: the binding result is “binds”.
On the same count and under the same terms, with B25 the entry was “binds”; with B26, “binds”.
Still for that read-out and setting: with B27 the entry was “binds”.
On the same count and under the same terms, with B28 the entry was “binds”; with B29, “binds”.
As to B30, the binding result is “binds”.
Same read-out and setting: the value for B31 was “binds”; that for B32 was “binds”; that for B33 was “binds”.
Consider B34, for which the binding result was “binds”.
Regarding B35, the binding result was “binds”.

The values are drawn from patent US20230021388A1 (VELOSBIO, published 2023).
